Patent US10653749B2, “Targeting GIV-GEF-GI signaling for treating diverse diseases” (The Regents of the University of California, priority 2015, dated 2020)
Changes are numbered by the printed parent chain. Names and notes keep the numbering of the source.

B1: TAT-GIV-CT-WT: Recombinant cell-permeable fusion of TAT-PTD, His and HA tags, linker and human GIV C-terminus (aa 1660-1870), wild type; SEQ ID NO: 2 (protein)
chain: MRGSHHHHHHGMASMTGGQQMGRDLYDDDDKDRWGSKLGYGRKKRRQRRRGGSTMSGYPYDVPDYAGSMGGSGHSGETLESRHHKIKTGSPGSEVVTLQQFLEESNKLTSVQIKSSSQENLLDEVMKSLSVSSDFLGKDKPVSCGLARSVSGKTPGDFYDRRTTKPEFLRPGPRKTEDTYFISSAGKPTPGTQGKIKLVKESSLSRQSKDSNPYATLPRASSVISTAEGTTRRTSIHDFLTKDSRLPISVDSPPAAADSNTTAASNVDKVQESRNSKSRSREQQSS
B2: TAT-GIV-CT-FA: GEF-deficient F1685A mutant of the TAT-GIV-CT peptide, dominant-negative; SEQ ID NO: 3 (protein)
chain: B1 chain with F101A

Tests used:
MDA MB231 cells = test: Transwell tumor cell invasion assay through basement membrane extract; type: cell-based; settings: compared to TAT-control peptides; 50 nM EGF
Experimental: Briefly, after a serum starvation overnight, MDA MB231 cells were first transduced with TAT peptides for 30 min as above. Transduced cells were trypsinized, counted, and placed in a Corning transwell permeable support coated with Cultrex Basement Membrane Extract (7×10^4 cells per well). Media without FBS but containing EGF ligand (50 nM) was placed within the bottom chamber of each well to trigger directional 3D invasion. As done in the 2D migration assays, transduction with TAT peptides was repeated one more time ˜10-12 h into the assay (total of two times). At 22-24 h, a Q-tip was used to meticulously remove all cells from the surface of the permeable membrane facing the upper chamber. […] To quantify cell invasion (expressed as number of invasive cells/high power field) ˜10-12 random fields per membrane insert per condition were analyzed for number of crystal violet stained cells. […]
Invasion assays were performed using Corning® Transwell plates according to the manufacturer's protocol. Transduced cells were trypsinized, counted and placed in a Corning transwell permeable support coated with Cultrex® Basement Membrane Extract (7×10^4 cells/well). […] Cell invasion (expressed as number of invasive cells/high power field) was quantified by analyzing ˜10-12 random fields/membrane insert/condition for number of crystal violet stained cells.

[1] = test system: L×2 human hepatic stellate cells; test: L×2 myofibroblast (hepatic stellate cell) activation by TGFβ, qPCR and immunoblot; type: cell-based
Experimental: For measurement of collagen and αSMA mRNA levels in L×2 HSCs we followed the protocols exactly as before (59). Briefly, total RNA was isolated using an RNeasy kit (QIAGEN) as per the manufacturer's protocol. First-strand cDNA was synthesized using SuperScript II reverse transcriptase (Invitrogen), followed by ribonuclease H treatment (Invitrogen) before performing quantitative realtime PCR. Reactions omitting reverse transcriptase were performed in each experiment as negative controls. Reactions were then run on a real-time PCR system (ABI StepOnePlus; Applied Biosystems). Gene expression was detected with SYBR green (Invitrogen), and relative gene expression was determined by normalizing to GAPDH using the ΔΔT method. The sequences of primers used in this work are identical to what were used previously (59).
For TAT-protein transduction, cells were incubated with 400-800 nM of the TAT-proteins for 30 min at 37° C. prior to three washes with PBS and addition of fresh growth media. For analysis of EGF signaling, subconfluent monolayers of HeLa cells were treated with TAT proteins for 30 min, washed with PBS, and subsequently stimulated with EGF (50 nM) at 4 h after TAT transduction. For scratch-wound assays, HeLa monolayers were treated with TAT proteins before and at 12 h after wounding. For cancer cell invasion assays, highly invasive MDA MB 231 breast cancer cells were plated in 6-well dishes, treated with TAT-peptides for 30 min and subsequently lifted and placed in transwell chamber in the presence of serum-free media. For L×2 myofibroblast activation assays, cells were first treated with TAT-proteins for 30 min, starved in serum-free media, and subsequently treated with 1.5 ng/ml TGF-β for 24 h. TAT-protein transduction was repeated every 8 h during the course of TGFβ stimulation (total 3 treatments). […] In each case, whole cell lysates prepared from cells in duplicate wells were analyzed for signaling pathways and TAT-protein uptake by immunoblotting.

Molecule	invasion through basement membrane matrix in response to EGF gradient (MDA MB231 cells)	reduction of HSC activation (expression of α-SMA) ([1]; TGFβ 24 h, TAT every 8 h, qPCR)	suppression of collagen production ([1]; TGFβ 24 h, TAT every 8 h, vs control and TAT-GIV-CT-WT, qPCR)	TGFβ-SMAD cascade (phosphorylation of SMAD2/3) ([1]; immunoblot)
B1	significantly enhanced	–	–	–
B2	virtually abolished	~30%	~70%	suppression
